The source of these data is the Human Domainome abundance scans (Beltran et al. 2025).

To fix the notation:
B1: Storkhead-box protein 2, residues 64 to 141; numbered along this chain, Q9P2F5 (parent)
chain: SPISQSQFIPLGEILCLAISAMNSARKPVTQEALMEHLTTCFPGVPTPSQEILRHTLNTLVRERKIYPTPDGYFIVTP

± gives the uncertainty stated by the source.

The variants in this data set derive from B1. Put plainly: abundance fitness (aPCA) (normalised: wild type 0, dead -1); higher = more abundant; growth selection in yeast, the domain comes from the species named. The following applies: Homo sapiens.
On to SPISQSQFIPLGEILCLAISAMNSDRKPVTQEALMEHLTTCFPGVPTPSQEILRHTLNTLVRERKIYPTPDGYFIVTP [A25D], for which the abundance fitness is 0.018 ± 0.099. In the case of SPISQSQFIPLGEILCLAISAMNSERKPVTQEALMEHLTTCFPGVPTPSQEILRHTLNTLVRERKIYPTPDGYFIVTP [A25E], the abundance fitness is -0.049 ± 0.1. With SPISQSQFIPLGEILCLAISAMNSFRKPVTQEALMEHLTTCFPGVPTPSQEILRHTLNTLVRERKIYPTPDGYFIVTP [A25F] the figure was -0.08 ± 0.058. With SPISQSQFIPLGEILCLAISAMNSCRKPVTQEALMEHLTTCFPGVPTPSQEILRHTLNTLVRERKIYPTPDGYFIVTP [A25C], the abundance fitness is -0.05 ± 0.074. For the variant SPISQSQFIPLGEILCLAISAMNSGRKPVTQEALMEHLTTCFPGVPTPSQEILRHTLNTLVRERKIYPTPDGYFIVTP [A25G], the abundance fitness is -0.175 ± 0.044. To SPISQSQFIPLGEILCLAISAMSSARKPVTQEALMEHLTTCFPGVPTPSQEILRHTLNTLVRERKIYPTPDGYFIVTP [N23S] belongs -0.12 ± 0.038; to SPISQSQFIPLGEILCLAISAMVSARKPVTQEALMEHLTTCFPGVPTPSQEILRHTLNTLVRERKIYPTPDGYFIVTP [N23V], -0.143 ± 0.046. To SPISQSQFIPLGEILCLAISAMRSARKPVTQEALMEHLTTCFPGVPTPSQEILRHTLNTLVRERKIYPTPDGYFIVTP [N23R] belongs -0.156 ± 0.031. Turning to SPISQSQFIPLGEILCLAISAMPSARKPVTQEALMEHLTTCFPGVPTPSQEILRHTLNTLVRERKIYPTPDGYFIVTP [N23P], the abundance fitness was -0.564 ± 0.055. Turning to SPISQSQFIPLGEILCLAISAMKSARKPVTQEALMEHLTTCFPGVPTPSQEILRHTLNTLVRERKIYPTPDGYFIVTP [N23K], the abundance fitness was -0.451 ± 0.084. To SPISQSQFIPLGEILCLAISAMQSARKPVTQEALMEHLTTCFPGVPTPSQEILRHTLNTLVRERKIYPTPDGYFIVTP [N23Q] belongs -0.123 ± 0.063; to SPISQSQFIPLGEILCLAISAMLSARKPVTQEALMEHLTTCFPGVPTPSQEILRHTLNTLVRERKIYPTPDGYFIVTP [N23L], -0.354 ± 0.041; to SPISQSQFIPLGEILCLAISAMWSARKPVTQEALMEHLTTCFPGVPTPSQEILRHTLNTLVRERKIYPTPDGYFIVTP [N23W], -0.31 ± 0.043. SPISQSQFIPLGEILCLAISAMMSARKPVTQEALMEHLTTCFPGVPTPSQEILRHTLNTLVRERKIYPTPDGYFIVTP [N23M]: the abundance fitness was -0.211 ± 0.072.

As to SPISQSQFIPLGEILCLAISAMYSARKPVTQEALMEHLTTCFPGVPTPSQEILRHTLNTLVRERKIYPTPDGYFIVTP [N23Y], the abundance fitness is -0.357 ± 0.087.

In the case of SPISQSQFIPLGEILCLAISAMISARKPVTQEALMEHLTTCFPGVPTPSQEILRHTLNTLVRERKIYPTPDGYFIVTP [N23I], the abundance fitness is -0.296 ± 0.083. Turning to SPISQSQFIPLGEILCLAISAMTSARKPVTQEALMEHLTTCFPGVPTPSQEILRHTLNTLVRERKIYPTPDGYFIVTP [N23T], the abundance fitness is -0.144 ± 0.066.

On to SPISQSQFIPLGEILCLAISAMNAARKPVTQEALMEHLTTCFPGVPTPSQEILRHTLNTLVRERKIYPTPDGYFIVTP [S24A], for which the abundance fitness was -0.002 ± 0.047. For the variant SPISQSQFIPLGEILCLAISAMNYARKPVTQEALMEHLTTCFPGVPTPSQEILRHTLNTLVRERKIYPTPDGYFIVTP [S24Y], the abundance fitness is -0.093 ± 0.083. To SPISQSQFIPLGEILCLAISAMNCARKPVTQEALMEHLTTCFPGVPTPSQEILRHTLNTLVRERKIYPTPDGYFIVTP [S24C] belongs -0.084 ± 0.066; to SPISQSQFIPLGEILCLAISAMNTARKPVTQEALMEHLTTCFPGVPTPSQEILRHTLNTLVRERKIYPTPDGYFIVTP [S24T], 0.058 ± 0.052.

Turning to SPISQSQFIPLGEILCLAISAMNEARKPVTQEALMEHLTTCFPGVPTPSQEILRHTLNTLVRERKIYPTPDGYFIVTP [S24E], the abundance fitness is 0.009 ± 0.048. To SPISQSQFIPLGEILCLAISAMNVARKPVTQEALMEHLTTCFPGVPTPSQEILRHTLNTLVRERKIYPTPDGYFIVTP [S24V] belongs -0.007 ± 0.052; to SPISQSQFIPLGEILCLAISAMNDARKPVTQEALMEHLTTCFPGVPTPSQEILRHTLNTLVRERKIYPTPDGYFIVTP [S24D], -0.018 ± 0.14. In the case of SPISQSQFIPLGEILCLAISAMNPARKPVTQEALMEHLTTCFPGVPTPSQEILRHTLNTLVRERKIYPTPDGYFIVTP [S24P], the abundance fitness was -0.34 ± 0.038.

Take SPISQSQFIPLGEILCLAISAMNWARKPVTQEALMEHLTTCFPGVPTPSQEILRHTLNTLVRERKIYPTPDGYFIVTP [S24W]: the abundance fitness was -0.226 ± 0.045. To SPISQSQFIPLGEILCLAISAMNRARKPVTQEALMEHLTTCFPGVPTPSQEILRHTLNTLVRERKIYPTPDGYFIVTP [S24R] belongs -0.018 ± 0.035. Take SPISQSQFIPLGEILCLAISAMNHARKPVTQEALMEHLTTCFPGVPTPSQEILRHTLNTLVRERKIYPTPDGYFIVTP [S24H]: the abundance fitness is -0.141 ± 0.095. Take SPISQSQFIPLGEILCLAISAMNLARKPVTQEALMEHLTTCFPGVPTPSQEILRHTLNTLVRERKIYPTPDGYFIVTP [S24L]: the abundance fitness is -0.078 ± 0.038. Turning to SPISQSQFIPLGEILCLAISAMNKARKPVTQEALMEHLTTCFPGVPTPSQEILRHTLNTLVRERKIYPTPDGYFIVTP [S24K], the abundance fitness was 0.037 ± 0.073. Turning to SPISQSQFIPLGEILCLAISAMNNARKPVTQEALMEHLTTCFPGVPTPSQEILRHTLNTLVRERKIYPTPDGYFIVTP [S24N], the abundance fitness came out at 0.063 ± 0.12.

Regarding SPISQSQFIPLGEILCLAISAMNQARKPVTQEALMEHLTTCFPGVPTPSQEILRHTLNTLVRERKIYPTPDGYFIVTP [S24Q], the abundance fitness came to 0.026 ± 0.076.

In the case of SPISQSQFIPLGEILCLAISAMNIARKPVTQEALMEHLTTCFPGVPTPSQEILRHTLNTLVRERKIYPTPDGYFIVTP [S24I], the abundance fitness was 0.018 ± 0.11.

Consider SPISQSQFIPLGEILCLAISAMNMARKPVTQEALMEHLTTCFPGVPTPSQEILRHTLNTLVRERKIYPTPDGYFIVTP [S24M], for which the abundance fitness was -0.125 ± 0.057. To SPISQSQFIPLGEILCLAISAMNFARKPVTQEALMEHLTTCFPGVPTPSQEILRHTLNTLVRERKIYPTPDGYFIVTP [S24F] belongs -0.162 ± 0.08.
